Assay results taken from patent US20140017260A1.

Target: Runx2
Assay: cell-based or functional assay

Row | Substance | suppression of Runx2 activation of the p6OSE2-Luc reporter construct
1 | Rorβ E28A/G29A double-point mutant in the DBD, C-terminal FLAG (receptor) | 96%
2 | Rorβ ΔAD (deletion of the activation domain), C-terminal FLAG (receptor) | 75%
3 | Rorβ ΔHinge (deletion of the Hinge domain), C-terminal FLAG (receptor) | 28%
4 | Rorβ ΔLBD (deletion of the ligand binding domain), C-terminal FLAG (receptor) | 88%
5 | retinoic acid receptor-related orphan receptor beta (Rorβ), wild-type, with C-terminal FLAG epitope | 91%
